± gives the uncertainty stated by the source.

This data set in a line: amyloid nucleation score (Sup35N fusion, yeast selection) (log enrichment); library NNK3; higher = more nucleation; inactive = no reads after selection. In outline: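 The nucleation score is a DiMSum log enrichment of output over input reads, centred on the mode score of non-aggregating sequences. Sequences under 100 input reads were excluded, and reads came from Illumina sequencing of plasmid inserts. Psi-negative yeast expressing Sup35N fused to peptides of 20 random codons were induced with 100 μM copper sulfate for 24 hours and grown 7 days at 30°C on medium lacking adenine and uracil. Random libraries had three technical output replicates.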
Regarding NNTLV, the amyloid nucleation score entry was “inactive”. For the substance NNTNAQKLLINV, the amyloid nucleation score result is “inactive”. In turn, NNTSGNLVCFSVKCNVIVPY displayed an amyloid nucleation score of 2.42 ± 0.056. For NNVKRSSPDSQVPSQVSMRF the value was “inactive”. For the substance NNVVVL, the amyloid nucleation score result was “inactive”. Regarding NPDCSQTMARGLRNSLVFLQ, the amyloid nucleation score result was “inactive”. Consider NPFMW, for which the amyloid nucleation score entry was “inactive”.

Consider NPLFMQSLKLRCCRNLRFRS, for which the amyloid nucleation score entry is “inactive”. NQEQWWLATAYPNVSWSIKL: the amyloid nucleation score entry is “inactive”. Then NQGWTCWCVSCCLGVKIVMI, with “inactive”; and NRASSVSCS, with “inactive”; and NRAVNFIVWWMYL, with “inactive”. For NRDNAEQYYRPTVTVCSEGW, the amyloid nucleation score entry is “inactive”. Turning to NRFCLRSTLSYSWYGDRSWA, the amyloid nucleation score came to 0.185 ± 0.7.

Turning to NRFLNIQKRSTPLNLPSSSV, the amyloid nucleation score entry is “inactive”. NRGNSIRRDNWFRVILRTCH: the amyloid nucleation score entry is “inactive”. In the case of NRILGGNLYVNVIDRIGGMV, the amyloid nucleation score result is “inactive”. As for NRLNGSLILDRHLL, the amyloid nucleation score entry is “inactive”.

In the case of NRMRPIDNLGHISMFGVLGG, the amyloid nucleation score result was “inactive”. Turning to NRQVNCSFEGFSNRSKVYAY, the amyloid nucleation score entry is “inactive”. Then NRRFITYFSFRSPEVYKMQY, with “inactive”; and NRVYA, with “inactive”. NRWTIPCFCGRKL showed an amyloid nucleation score of 1.12 ± 0.089. Take NRYIGNIYEKNGNSNFKPSI: the amyloid nucleation score result was “inactive”.

Consider NRYLLRVVLYNSLTRLTVGF, for which the amyloid nucleation score result was “inactive”.

In the case of NSCSVVMFPYH, the amyloid nucleation score result is “inactive”.

For NSDMESDSHSNKVVRYLCGP, the amyloid nucleation score entry was “inactive”. With NSFDNFFSLNLNTGAYY, the amyloid nucleation score entry is “inactive”. NSFDSMGSMFANRYRLNFPR: the amyloid nucleation score result is “inactive”. Regarding NSGCQMFL, the amyloid nucleation score entry is “inactive”.

With NSGHLVLGCMYIFSNGFVDR, the amyloid nucleation score worked out at 1.22 ± 0.14. On to NSIQEDV, for which the amyloid nucleation score entry is “inactive”. As for NSKSVSWMFMPLQAFLCLIG, the amyloid nucleation score result was “inactive”. For NSKYLLD, the amyloid nucleation score entry is “inactive”. On to NSLFSNCARLYGNRGTLGLS, for which the amyloid nucleation score entry is “inactive”. Regarding NSLNMRFTLQQTLMGQMNYV, the amyloid nucleation score entry was “inactive”.

In turn, NSMHAATWLEARRRLDKEGF had an amyloid nucleation score of -0.753 ± 1.3. Regarding NSMSKVKMLVRSISTIEEVK, the amyloid nucleation score entry was “inactive”.

The substance NSRFIMHHVGRAFDCDAYLF displayed an amyloid nucleation score of -0.194 ± 0.8.

For NSSAKGFVQV, the amyloid nucleation score result was “inactive”.

As to NTCDAPMSNGYAWWD, the amyloid nucleation score was -0.399 ± 0.75. Then NTIGNNVKYETRCNQSV, with “inactive”. Turning to NTRSPAESMHHPLMAMAVKN, the amyloid nucleation score entry is “inactive”. For NTSYLDASSNGNQRCIHSHK the value was “inactive”; for NTTCYIVRVMYVPHG, “inactive”. For NTYLVWIPRSFGQGKSNCLK, the amyloid nucleation score result was “inactive”.

On to NVDHRTKSWLINWFTSLELL, for which the amyloid nucleation score result is “inactive”. NVFQVALRNSLSMLGSGMRM: the amyloid nucleation score entry was “inactive”. For NVILYGKNLS the value was “inactive”. NVNLVSIVVVIMDEKDKVKE showed an amyloid nucleation score of 2.84 ± 0.07. Take NVTCGRLTPSRDLKHAPVI: the amyloid nucleation score is -0.32 ± 1.1. Then NVVCNDPPPGVYEDLGWTGI, with “inactive”. For NVVIFML the value was 2.47 ± 0.076; for NVWSVVFVSCLIIYGCPKWM, 1.31 ± 0.087. On to NWGVYCVRDLWYRHSDMYHR, for which the amyloid nucleation score entry was “inactive”. Consider NWLVSWFLFFPNSPLFCYHW, for which the amyloid nucleation score entry was “inactive”. Turning to NWRMVQNQVVWVLRLNTYHY, the amyloid nucleation score entry was “inactive”. Substance NYARTFSRKRMVQKTRSGKG came in with an amyloid nucleation score of -0.077 ± 0.4.

For the substance NYAYPIPIRLLIEAWRMGTA, the amyloid nucleation score entry was “inactive”. For NYGQALHWLLRGGSMWSQGT, the amyloid nucleation score entry was “inactive”. Turning to NYIDGFFFVHWAGTLMHKDC, the amyloid nucleation score entry is “inactive”. Take NYLVVLMGSTCMKVRPLGVS: the amyloid nucleation score entry is “inactive”. Then NYNRAPMGTAET, with “inactive”; and NYSRPEL, with 0.782 ± 0.17. NYVICVYFMAGVSACMTLLV: the amyloid nucleation score result is “inactive”. PCDQD: the amyloid nucleation score entry is “inactive”. As for PCLFTSSVSIFYNDALLVLS, the amyloid nucleation score entry is “inactive”. In the case of PCNFL, the amyloid nucleation score entry is “inactive”. PCQDWARYAPGLPLPMGLAL displayed an amyloid nucleation score of -0.293 ± 0.89. As to PCRTDICR, the amyloid nucleation score entry was “inactive”. Then PDINM, with “inactive”. Turning to PDNGLRAIMTAGPVFSRQSN, the amyloid nucleation score result is “inactive”. As for PEMFGRSWARDTRKVTVLAS, the amyloid nucleation score entry is “inactive”. On to PFDVHKRR, for which the amyloid nucleation score entry is “inactive”. For the substance PFENR, the amyloid nucleation score entry was “inactive”. Turning to PFIGVSMLSMG, the amyloid nucleation score is -0.47 ± 0.87. For the substance PFKFFW, the amyloid nucleation score result is “inactive”.

In the case of PFLYGRYFVAISNS, the amyloid nucleation score result was “inactive”. In the case of PFPQWEKHYYFFAMNYFHFS, the amyloid nucleation score was determined as 1.75 ± 0.061.

Take PFWWPRKQLYVSQSRKTTAS: the amyloid nucleation score result is “inactive”. Then PGCTTN, with “inactive”; and PGDTQITYTGLSEFWCPGVA, with “inactive”; and PGDVRLGDIVLIFFLRM, with 0.781 ± 0.26. For PGITNLWLEMSHV the value was “inactive”; for PGREIVVPHFR, “inactive”. Regarding PGSGIHNWMNCYRSLKE, the amyloid nucleation score result is “inactive”.

Turning to PGVLLVWLSYSGSRLLS, the amyloid nucleation score result was “inactive”.

Take PGVYKNVAFLR: the amyloid nucleation score result was “inactive”. For the substance PGYSFKVSA, the amyloid nucleation score is -1.06 ± 2.5. As for PHFQTFRDYVLCGISFSYCE, the amyloid nucleation score was determined as 1.46 ± 0.1.

On to PHNLNGPS, for which the amyloid nucleation score was -0.68 ± 1.9. For PHSQDMVWQCCWGGATAEES, the amyloid nucleation score is -0.047 ± 0.72. Turning to PIFWR, the amyloid nucleation score entry is “inactive”.

With PIQGAMTRNYRFRTGRGFCL, the amyloid nucleation score was determined as 0.882 ± 0.2. In the case of PKAGALQQFMMRHSSHFQLS, the amyloid nucleation score entry is “inactive”. As to PKMSPSAMRSCDDLASPFIS, the amyloid nucleation score entry is “inactive”.

As for PLCWNLNIRDTGIYRPRMRP, the amyloid nucleation score entry is “inactive”. Then PLFFMPGNKWTYFSKSSADT, with “inactive”; and PLIWCWKIVGRAWFAESRIL, with “inactive”. For PLPPPRKAMASLFVFLAWMA, the amyloid nucleation score entry is “inactive”. Then PLRSTKSIIVLMDEMRLIAN, with “inactive”; and PLTFRTMVFKALVEAWRKFN, with “inactive”. Regarding PMMGSLYFVP, the amyloid nucleation score entry was “inactive”.

Take PMMWSVVVYNTNIYGLVCAM: the amyloid nucleation score worked out at 1.26 ± 0.08.

Consider PMPCIYVSGVWHRVLLCFLS, for which the amyloid nucleation score result was “inactive”. Take PNARKMCMLFVTECFKVVPK: the amyloid nucleation score entry was “inactive”. Regarding PNDVRNAFFCPPPTKKPTVA, the amyloid nucleation score entry is “inactive”. PNGSEIENLMYRGTLSC: the amyloid nucleation score result is “inactive”.

For the substance PNNSIHQIICYIWNEYTWSC, the amyloid nucleation score was 2.55 ± 0.059. For the substance PNVMNNFVCITDPIPVGSMW, the amyloid nucleation score result is “inactive”. With PPKGKSWMLIVVNRLGEDEQ, the amyloid nucleation score result is “inactive”. As to PPLYSRYLSFNGMTKVPWIC, the amyloid nucleation score entry is “inactive”.

PPTLQMVTVVGPKGWKVMFS: the amyloid nucleation score entry is “inactive”. With PQASVDQFLYFPIWTYLGIN, the amyloid nucleation score entry is “inactive”. Regarding PQCESLMYCGD, the amyloid nucleation score entry is “inactive”.

In the case of PQHADVAFVT, the amyloid nucleation score entry is “inactive”. With PQPARLDQGGYISDMYCYVI, the amyloid nucleation score is -0.362 ± 1.3. In the case of PREWLGVLLMTVLNFWMTVV, the amyloid nucleation score entry is “inactive”. Then PRGLVALGFGAFSKGPHGRS, with “inactive”; and PRLNMGCMLFSEYTYCQMIL, with 1.1 ± 0.14; and PRQRLMMWSRRG, with “inactive”. As for PRWETSYLIL, the amyloid nucleation score result was “inactive”. For PSKFVHKSDLCDNGYLPCTR the value was “inactive”. On to PSLCFSAVQLRLPRDVFLKY, for which the amyloid nucleation score entry was “inactive”.

In the case of PSLLQVHKCLRIRLIWRWLW, the amyloid nucleation score entry is “inactive”. Consider PSRIGSDFSRFLSEECGQLR, for which the amyloid nucleation score result was “inactive”. For PSTDVILSANWDDRRSGLYG, the amyloid nucleation score entry is “inactive”. For PSVIRNAYYAY the value was “inactive”; for PSYFEYFVRIGFFG, “inactive”; for PSYNCFTKFVADQTVTLRFS, “inactive”. Consider PTATRGPMTLRSHASHHRTL, for which the amyloid nucleation score entry is “inactive”.

The record behind these values is the supplement of paper PMC12042874.
